For one assay, the target named is HLA-A*0101 (human). Description: inhibition of 125I-labelled probe peptide binding to purified HLA, gel filtration; standard peptide.
The target in assay [1] is HLA-A*2902 (human). The description is as above.
Assay [2] deals with HLA-A*2902 (human). Kind of assay: inhibition of 125I-labelled probe peptide binding to purified HLA, gel filtration; standard peptide (allele listed again under supertype A24).
Another assay deals with T1, HLA-DRB1*0901 (human).
T1 chain 1: not shown
T1 chain 2: not shown

For assay [3], the target named is HLA-A*3002 (human). Description: inhibition of 125I-labelled probe peptide binding to purified HLA, gel filtration; standard peptide.
Assay [4] deals with HLA-A*3002 (human). Description: inhibition of 125I-labelled probe peptide binding to purified HLA, gel filtration; standard peptide (allele listed again under supertype A24).

Here are results for three molecules from patent publication US20070014810A1, “Inducing cellular immune responses to human papillomavirus using peptide and nucleic acid compositions” (priority 2003, published 2007).

As for YTAVVPLVY (modifications not checked), the IC50 with HLA-A*0101 (human), with HLA-A*2902 (human) [1] and with HLA-A*2902 (human) [2] was 5 nM in each case.

For the molecule AKFVAAWTLKAAA (modifications not checked), the IC50 with HLA-DRB1*0901 (human) came to 75 nM.

For the molecule RISGVDRYY (modifications not checked), the IC50 with HLA-A*3002 (human) [3] and in the assay with HLA-A*3002 (human) [4] was 3 nM throughout.

What is called IC50 is the concentration at which inhibition is half-maximal. Read a high IC50 as weaker potency in that assay.
